Source: the Human Domainome abundance scans (Beltran et al. 2025)
± gives the uncertainty stated by the source.

B1: Ankyrin repeat and SAM domain-containing protein 6, residues 774 to 836; numbered along this chain, Q68DC2 (parent)
chain: DEDELTGILKKLSLEKYQPIFEEQEVDMEAFLTLTDGDLKELGIKTDGSRQQILAAISELNAG
B2: Nuclear receptor subfamily 4 group A member 2, residues 260 to 336; numbered along this chain, P43354 (parent)
chain: EGLCAVCGDNAACQHYGVRTCEGCKGFFKRTVQKNAKYVCLANKNCPVDKRRRNRCQYCRFQKCLAVGMVKEVVRTD

Variants of: B1
Test: abundance fitness (aPCA) (normalised: wild type 0, dead -1); higher = more abundant; growth selection in yeast, the domain comes from the species named
Details: Homo sapiens

Abundance fitness, by site and new letter:
A55: R 0.108 ± 0.037; S 0.043 ± 0.042; T 0.063 ± 0.077; V -0.301 ± 0.049; W -0.386 ± 0.055; Y -0.128 ± 0.049
A56: C 0.007 ± 0.051; D -0.183 ± 0.079; E 0.004 ± 0.079; F -0.246 ± 0.074; G 0.009 ± 0.041; H -0.147 ± 0.075; I -0.486 ± 0.14; K -0.202 ± 0.051; L -0.17 ± 0.037; M -0.227 ± 0.08; N -0.385 ± 0.075; P -0.377 ± 0.055; S -0.157 ± 0.042; T -0.113 ± 0.059; V -0.133 ± 0.043; W -0.708 ± 0.064; Y -0.109 ± 0.053
I57: A -0.248 ± 0.052; C -0.277 ± 0.051; E -0.414 ± 0.046; F -0.675 ± 0.088; G -0.37 ± 0.038; H -0.254 ± 0.14; K -0.349 ± 0.081; L -0.257 ± 0.041; M -0.539 ± 0.051; N -0.437 ± 0.073; Q -0.116 ± 0.062; S -0.282 ± 0.051; T -0.221 ± 0.06; V -0.206 ± 0.054; W -0.675 ± 0.086; Y -0.696 ± 0.087
S58: A 0.045 ± 0.066; F -0.434 ± 0.068; G 0.034 ± 0.04; H -0.114 ± 0.17; I -0.533 ± 0.088; K 0.157 ± 0.066; M -0.205 ± 0.093; N 0.118 ± 0.09; Q -0.198 ± 0.092; R 0.022 ± 0.04; T -0.064 ± 0.049; Y -0.466 ± 0.1
E59: A 0 ± 0.055; C -0.272 ± 0.059; D -0.078 ± 0.079; H 0.047 ± 0.071; I -0.505 ± 0.1; K 0.02 ± 0.071; M -0.169 ± 0.065; N -0.212 ± 0.17; P -0.614 ± 0.073; Q -0.097 ± 0.061; S -0.113 ± 0.046; T -0.106 ± 0.069; V -0.267 ± 0.051; W -0.35 ± 0.044; Y 0.02 ± 0.11
L60: A -0.147 ± 0.041; C 0.033 ± 0.046; D -0.359 ± 0.067; F -0.04 ± 0.062; G -0.301 ± 0.036; I -0.073 ± 0.073; K -0.508 ± 0.2; M -0.054 ± 0.057; N -0.286 ± 0.15; P -0.636 ± 0.082; R -0.108 ± 0.039; S -0.466 ± 0.045; V -0.03 ± 0.042; W 0.031 ± 0.055; Y 0.048 ± 0.069
N61: A -0.148 ± 0.051; C -0.314 ± 0.064; D -0.297 ± 0.067; G -0.186 ± 0.036; H -0.007 ± 0.084; I -0.449 ± 0.074; K 0.071 ± 0.064; L -0.299 ± 0.042; M -0.333 ± 0.057; P -0.461 ± 0.057; Q -0.127 ± 0.05; R 0.007 ± 0.043; S -0.173 ± 0.042; T -0.001 ± 0.043; W -0.531 ± 0.055; Y -0.345 ± 0.062
A62: C -0.017 ± 0.14; D 0.031 ± 0.071; E 0.035 ± 0.051; F -0.345 ± 0.1; G 0.011 ± 0.041; H -0.074 ± 0.1; I -0.325 ± 0.064; K -0.25 ± 0.11; L -0.178 ± 0.029; M -0.2 ± 0.053; N -0.07 ± 0.13; P -0.294 ± 0.075; Q -0.121 ± 0.073; R -0.048 ± 0.043; S -0.09 ± 0.051; T -0.161 ± 0.057; V -0.117 ± 0.064; W -0.475 ± 0.086
G63: A -0.007 ± 0.062; C -0.111 ± 0.067; D -0.278 ± 0.11; E -0.2 ± 0.15; F -0.532 ± 0.12; H -0.216 ± 0.13; I -0.161 ± 0.098; K -0.166 ± 0.14; N -0.266 ± 0.12; P -0.052 ± 0.097; R 0.073 ± 0.05; S -0.069 ± 0.054; T -0.105 ± 0.068; V -0.135 ± 0.045; W -0.464 ± 0.085

Variants of: B2
Test: as above
Details: Homo sapiens

Abundance fitness of substitutions, site by site:
G2: S -0.075 ± 0.28; V -0.191 ± 0.26
L3: F -0.026 ± 0.34; V -0.054 ± 0.19
C4: R -0.47 ± 0.35
A5: L 0.219 ± 0.22; R -0.026 ± 0.25
G8: D -0.459 ± 0.24; L 0.457 ± 0.39; M -0.019 ± 0.21
D9: G 0.05 ± 0.2; W -0.058 ± 0.45
C13: A 0.1 ± 0.088; D -0.022 ± 0.22; E 0.03 ± 0.085; F 0.116 ± 0.18; G 0.057 ± 0.054; H 0.136 ± 0.31; I -0.298 ± 0.43; K 0.099 ± 0.11; L 0.083 ± 0.083; M 0.239 ± 0.08; R -0.103 ± 0.075; S 0.092 ± 0.075; T 0.006 ± 0.098; V 0.046 ± 0.061; W 0.082 ± 0.07; Y -0.138 ± 0.36
Q14: A 0.207 ± 0.089; D -0.189 ± 0.1; E -0.129 ± 0.095; G 0.005 ± 0.07; I -0.211 ± 0.4; K 0.256 ± 0.1; L 0.221 ± 0.073; M 0.199 ± 0.079; N -0.088 ± 0.21
